From article PMC6065417, “Neutralization of Junín virus by single domain antibodies targeted against the nucleoprotein” (Scientific Reports, 2018)

How the values were obtained:
Conditions in all cases: one partner purified
[1] = target: T1, Junín virus nucleoprotein (N) of strain Candid#1, expressed from a plasmid (Junin mammarenavirus, Candid#1, UniProt F4ZL09, strain); test: immunostaining of cells or tissue
T1 construct: also called N from Candid#; Candid#1N; source: Vero cells, transfected (Fugene), in fixed and permeabilized cells

[2] = target: T2, Junín virus nucleoprotein (N) of strain XJCl3, expressed from a plasmid (Junín virus (Junin mammarenavirus), …, UniProt F4ZL09, strain); test: immunostaining of cells or tissue
T2 construct: also called N from XJCl3

[3] = target: T3, Junín virus nucleoprotein (N) in Candid#1-infected cells (Junin mammarenavirus, Candid#1, UniProt F4ZL09, strain); test: co-IP
T3 construct: also called viral N; Candid#1N

Measured: binding result

B1: VHH 2.3 (VHH)
VHH: QVQLVESGGGLVQPGGSLRLSCAASGSIDSINAMAWYRQAPGKERELVAGISKNGIPWYLDSLKGRFNVSRDNAKNTLYLQIHNLKPEDAAMYYCASSSRTIATTTNEFDFWGQGTQVTVSS
notes: source: E. coli, periplasmic extract, purified (Ni-NTA); not shown: His6, C-terminal, kept
binds: [1] | [2] | [3]
